In paper PMC2856262:
Read-outs that look alike come from different tables or passages of the source.

Columns and labels:
[1] = target: Rat MBL, deletion mutant (one Gly-Xaa-Yaa triplet removed from the collagenous domain) (rat) (UniProt P19999); assay: SPR
[2] = target: Rat MBL, double-deletion mutant (two Gly-Xaa-Yaa triplets removed from the collagenous domain) (rat) (UniProt P19999); assay: SPR
[3] = target: Rat MBL, insertion mutant (a single Gly-Pro-Hyp inserted near the kink-like region) (rat) (UniProt P19999); assay: SPR
[4] = target: Rat MBL, kink mutant (kink-like region removed by insertion of a proline residue) (rat) (UniProt P19999); assay: SPR
[5] = target: Recombinant rat mannose-binding lectin (MBL), wild-type (rat) (UniProt P19999); assay: SPR
[6] = target: SPA-KL (SP-A with Glu63 to Lys and Cys64 to Leu); assay: SPR
[7] = target: SPA-KLP (SP-A with Glu63 to Lys, Cys64 to Leu and Glu66 to Pro); assay: SPR
[8] = target: SPA-KLPO (SPA-KLP with Lys67 replaced by hydroxyproline); assay: SPR
[9] = target: SPA-KLPOS (SPA-KLPO with the cysteine of the kink replaced by serine); assay: SPR
[10] = target: SPA-KLPOdel (SPA-KLPO with the kink sequence PCPP removed); assay: SPR
[11] = target: Recombinant rat mannose-binding lectin (MBL), wild-type (rat) (UniProt P19999); assay: SPR; remark: listed apart in the source
[12] = target: SPA-KLP (SP-A with Glu63 to Lys, Cys64 to Leu and Glu66 to Pro)
[13] = target: SPA-KLPO (SPA-KLP with Lys67 replaced by hydroxyproline)
[14] = target: SPA-KLPOS (SPA-KLPO with the cysteine of the kink replaced by serine)
[15] = target: SPA-KLPOdel (SPA-KLPO with the kink sequence PCPP removed)

## MASP-2A (rat MBL-associated serine protease-2, catalytically inactive, Ser613 to Ala) (enzyme)
[1]
  KD, complex 2: 175 nM
  koff, complex 1: 0.0038 s⁻¹
  koff, complex 2: 0.0054 s⁻¹
[2]
  KD, complex 2: 195 nM
[3]
  KD, complex 1: 4.9 nM
  KD, complex 2: 199 nM
[4]
  KD, complex 2: 136 nM
  koff, complex 1: 0.0062 s⁻¹
[5]
  KD, complex 2: 165 nM
  koff, complex 2: 0.00475 s⁻¹
[6]
  KD, complex 2: 2120 nM
[7]
  KD, complex 2: 104 nM
  koff, complex 2: 0.0176 s⁻¹
  kon, complex 1: 54000 M⁻¹ s⁻¹
  kon, complex 2: 360000 M⁻¹ s⁻¹
[8]
  KD, complex 1: 97 nM
  KD, complex 2: 232 nM
  koff, complex 1: 0.0025 s⁻¹
  koff, complex 2: 0.022 s⁻¹
  kon, complex 1: 26000 M⁻¹ s⁻¹
  kon, complex 2: 96000 M⁻¹ s⁻¹
[9]
  KD, complex 1: 99 nM
  KD, complex 2: 203 nM
  koff, complex 1: 0.0046 s⁻¹
  koff, complex 2: 0.037 s⁻¹
  kon, complex 1: 45000 M⁻¹ s⁻¹
  kon, complex 2: 210000 M⁻¹ s⁻¹
[10]
  KD, complex 1: 29 nM
  KD, complex 2: 114 nM
  koff, complex 1: 0.0017 s⁻¹
  koff, complex 2: 0.021 s⁻¹
  kon, complex 1: 53000 M⁻¹ s⁻¹
[11]
  KD, complex 1: 3.8 nM
  KD, complex 2: 166 nM

## MASP-2K (rat MBL-associated serine protease-2, catalytically active, Arg424 to Lys) (enzyme)
[12]
  Half-time for MASP-2K activation, fucose-Sepharose as target: 270 min
[13]
  Half-time for MASP-2K activation, fucose-Sepharose as target: 256 min
[14]
  Half-time for MASP-2K activation, fucose-Sepharose as target: 166 min
[15]
  Half-time for MASP-2K activation, fucose-Sepharose as target: 316 min
